Experimental data as given in US8354508B2.

Molecular target: T1, Boc-QAR-AMC
T1 sequence (peptide, N-terminal Boc; C-terminal AMC): QAR

human Pro115 on cells (enzyme) was tested, and the fluorescence of cleaved Boc-QAR-AMC (370 nm excitation, 450 nm emission), cell-based protease assay was 3 times.
